From article PMC3812226, “A New Short Oligonucleotide-Based Strategy for the Precursor-Specific Regulation of microRNA Processing by Dicer”

Tests used:
[1] = target: T1, hDicer (human recombinant Dicer) (human, UniProt Q9UPY3 1-1922); assay: EMSA; no divalent metal, 4 C; Filter binding: 20 mM Tris-HCl pH 7.5, 250 mM NaCl (membrane pre-soak/reaction buffer), 37 C 30 min; hDicer EMSA: 20 min at 4 C, Dicer preincubated without divalent cations (Fig S1), native PAGE; conditions: protein: commercial; label: 5'-32P
[2] = target: T1, hDicer (human recombinant Dicer); assay: EMSA; 4 C; Filter binding: 20 mM Tris-HCl pH 7.5, 250 mM NaCl (membrane pre-soak/reaction buffer), 37 C 30 min; hDicer EMSA: 20 min at 4 C, Dicer preincubated without divalent cations (Fig S1), native PAGE; conditions: protein: commercial; label: 5'-32P; single strand
[3] = target: T1, hDicer (human recombinant Dicer); assay: competition; displaces labeled ATD_13.6; Filter binding: 20 mM Tris-HCl pH 7.5, 250 mM NaCl (membrane pre-soak/reaction buffer), 37 C 30 min; hDicer EMSA: 20 min at 4 C, Dicer preincubated without divalent cations (Fig S1), native PAGE; conditions: protein: commercial; hairpin
[4] = target: T1, hDicer (human recombinant Dicer); assay: competition; displaces labeled ATD_13.6 (most profound effect); Filter binding: 20 mM Tris-HCl pH 7.5, 250 mM NaCl (membrane pre-soak/reaction buffer), 37 C 30 min; hDicer EMSA: 20 min at 4 C, Dicer preincubated without divalent cations (Fig S1), native PAGE; conditions: protein: commercial; hairpin

B1: ATD_15.52 (structured_RNA)
RNA: GGGAGAAUCAUAAGUAGCGCAGUGAGUCGUUGUGCUGCCCAUGUUAACAGUUAGCC
- binding result [1]: binds

Binder: GGGGCAGCGCAG (XNA, 2'-O-methyl at every ribose) [2OMe-AL-210]
- binding result [2]: binds

B2: pre-miR-33a (structured_RNA)
RNA: GUGCAUUGUAGUUGCAUUGCAUGUUCUGGUGGUACCCAUGCAAUGUUUCCACAGUGCAUC
- binding result [3]: binds

B3: pre-miR-21 (structured_RNA)
RNA: AGCUUAUCAGACUGAUGUUGACUGUUGAAUCUCAUGGCAACACCAGUCGAUGGGCUGU
- binding result [3]: binds

B4: pre-miR-16-1 (structured_RNA)
RNA: UAGCAGCACGUAAAUAUUGGCGUUAAGAUUCUAAAAUUAUCUCCAGUAUUAACUGUGCUGCUGAA
- binding result [4]: binds
